Assay results published in publication PMC4850266.

Molecular target: A. fumigatus FKBP12(V91C) (Aspergillus fumigatus)
Assay: cross-linking; disulfide trapping through the single cysteine V91C; protein purified from C41(DE3) and SHuffle cells without reducing agent; nonreducing SDS-PAGE

**Q.** How did the stoichiometry N turn out when A. fumigatus FKBP12(V91C) (enzyme) was run?
**A.** Its stoichiometry N is 2.
